B1: anti-PD-L1 antibody H6 (antibody, V domains shown)
VH: QMQLVQSGAEVKKPGSSVKVSCKASGGTFSSYAISWVRQAPGQGLEWMGGIIPIFGTANYAQKFQGRVTITADESTSTAYMELSSLRSEDTAVYYCARGNIVATITPLDYWGQGTLVTVSS
VL: SYELMQPPSVSVAPGKTATIACGGENIGRKTVHWYQQKPGQAPVLVIYYDSDRPSGIPERFSGSNSGNTATLTISRVEAGDEADYYCQVWDSSSDHRIFGGGTKLTVL
notes: Fully human antibody of an IgG class
B2: anti-PD-L1 antibody H10 (antibody, V domains shown)
VH: EVQLVQSGGGLVQPGGSLRLSCAASGFTFSSYSMNWVRQAPGKGLEWVSYISSSSSTIYYADSVKGRFTISRDNAKNSLYLQMNSLRDEDTAVYYCARGDYYYGMDVWGQGTTVTVSS
VL: EIVLTQSPSSLSASIGDRVTLTCRASQSIRRFLNWYQQKPGKAPELLIYTASSLQSGVPSRFSGSGSGTDFTLTINSLQPEDFATYYCQQSYAVSPYTFGQGTKVEIR
notes: as for B1

Molecular target: T1, human PD-L1 expressed on the cell surface (human, UniProt Q9NZQ7 19-290)
T1 construct: whole, on cells; also called CHO-PD-L1
T1 sequence (Q9NZQ7 19-290): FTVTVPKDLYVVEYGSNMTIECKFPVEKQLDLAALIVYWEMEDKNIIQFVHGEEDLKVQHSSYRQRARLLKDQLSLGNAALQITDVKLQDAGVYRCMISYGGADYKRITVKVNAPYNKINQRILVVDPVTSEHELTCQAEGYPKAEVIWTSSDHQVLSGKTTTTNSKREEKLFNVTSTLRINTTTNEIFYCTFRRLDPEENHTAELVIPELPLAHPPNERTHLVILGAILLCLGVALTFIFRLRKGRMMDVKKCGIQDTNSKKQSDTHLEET
Test: flow cytometry on anti-CD3 activated human lymphocytes (CD19 negative gate), PE anti-human Ig detection
Protocol: This example provides a characterization of the disclosed anti-PD-L1 antibodies binding to human PD-L1 expressed on human lymphocytes. Human peripheral blood mononuclear cells were activated by culture with anti-CD3 for three days to promote expression of PD-L1. Binding was assessed by adding serial dilutions of the antibody to the activated lymphocytes. After washing, binding was detected by staining with a phycoerythrin labeled anti-human Ig reagent followed by analysis using a FACS Aria (Becton Dickinson, San Jose, Calif.). Since the anti-human Ig reagent reacts with immunoglobulin on B lymphocytes the cells were co-staining with an anti-human CD19 APC-Cy5 reagent.

| Binder | EC50 [nM] |
| --- | --- |
| B1 | ~0.1 |
| B2 | ~0.1 |

Source: patent US20170281765A1 (SORRENTO THERAPEUTICS, published 2017)
